The supplement of paper PMC7877785
± gives the uncertainty stated by the source.

Experiment: self-splicing fitness, log relative to wild type (ln ratio); higher = more splicing; Tetrahymena group I intron in knt gene, E. coli kanamycin selection, DiMSum; sequences stand for … in CUCUCU…GGAGGGAAAAGUUAUCAGGCAUGCACCUGGUAGCUAGUCUUUAAACCAAUAGAUUGCAUCGGUUUAAAAGGCAAGACCGUCAAAUUGCGGGAAAGGGGUCAACAGCCGUUCAGUACCAAGUCUCAGGGGAAACUUUGAGAUGGCCUUGCAAAGGGUAUGGUAAUAAGCUGACGGACAUGGUCCUAACCACGCAGCCAAGUCCUAAGUCAACAGAUCUUCUGUUGAUAUGGAUGCAGUUCACAGACUAAAUGUCGGUCGGGGAAGAUGUAUUCUUCUCAUAAGAUAUAGUCGGACCUCUCCUUAAUGGGAGCUAGCGGAUGAAGUGAUGCAACACUGGAGCCGCUGGGAACUAAUUUGUAUGCGAAAGUAUAUUGAUUAGUUUUGGAGUACUCGUGGUCG
Procedure, shortened: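 Six replicate transformations of E. coli BL21(DE3) with a pET-22b(+) library were grown overnight at 37°C or 30°C. The library randomised all eight P1ex-region intron nucleotides, the intron lying in the knt kanamycin-resistance gene, and plates were LB agar with or without 25 μg/mL kanamycin plus 100 μg/mL carbenicillin, 50 μM IPTG and 0.2% rhamnose. Pooled colonies were amplicon-sequenced on an Illumina HiSeq 2500, and fitness is the DiMSum error-weighted combination of wild-type-normalised replicate fold changes, kanamycin versus none.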

| Sequence | self-splicing fitness (ln) (30 °C) | self-splicing fitness (ln) (37 °C) |
| --- | --- | --- |
| CAAUAGCAAUAUUACGUCGU | -3.95 ± 0.23 | -2.49 ± 0.19 |
| GGACAGCAAUAUUACGUGUU | -3.42 ± 0.13 | -2.44 ± 0.2 |
| UCCAAGCAAUAUUACGUCCG | -2.76 ± 0.21 | -1.81 ± 0.19 |
| CGUCAGCAAUAUUACGUGUU | -3.17 ± 0.11 | -0.86 ± 0.099 |
| GCGCAGCAAUAUUACGGAAA | -1.97 ± 0.23 | -0.698 ± 0.2 |
| GUCUAGCAAUAUUACGUGAG | -0.175 ± 0.075 | 0.0626 ± 0.093 |
| GACGAGCAAUAUUACGUGAG | -2.7 ± 0.16 | -2.62 ± 0.19 |
| AUUUAGCAAUAUUACGACAA | -1.36 ± 0.2 | -0.936 ± 0.22 |
| UAGCAGCAAUAUUACGGAGG | -3.29 ± 0.15 | -2.6 ± 0.22 |
| CGGAAGCAAUAUUACGCCAA | -2.25 ± 0.39 | -2.08 ± 0.4 |
| GGAUAGCAAUAUUACGCCUC | -2.02 ± 0.32 |  |
| GCUCAGCAAUAUUACGACCU | -0.614 ± 0.2 | -0.401 ± 0.21 |
| GUGAAGCAAUAUUACGUUAC | -2.88 ± 0.11 | -1.52 ± 0.13 |
| CGUUAGCAAUAUUACGUAAA | -2.88 ± 0.22 | -1.88 ± 0.26 |
| GAACAGCAAUAUUACGAUAG | -3.6 ± 0.14 | -0.972 ± 0.094 |
| UAUAAGCAAUAUUACGCGCU | -0.854 ± 0.18 | 0.225 ± 0.23 |
| GAUAAGCAAUAUUACGACAA | -1.46 ± 0.11 | -0.276 ± 0.14 |

| Sequence | self-splicing fitness (ln) (30 °C) | self-splicing fitness (ln) (37 °C) |
| --- | --- | --- |
| UCGGAGCAAUAUUACGUUAU | -3.36 ± 0.38 | -2.11 ± 0.38 |
| AUUGAGCAAUAUUACGCAUA | -3 ± 0.21 | -2.47 ± 0.24 |
| CGUCAGCAAUAUUACGGGCA | 0.0754 ± 0.085 | 0.572 ± 0.096 |
| CCUCAGCAAUAUUACGGGGA | -3.03 ± 0.14 | -2.1 ± 0.15 |
| AAAGAGCAAUAUUACGACCA | -1.98 ± 0.18 |  |
| GGUUAGCAAUAUUACGAGGU |  | -2.43 ± 0.32 |
| UGGGAGCAAUAUUACGGGAA | -2.98 ± 0.3 | -1.87 ± 0.24 |
| UGCAAGCAAUAUUACGCUAU | -2.7 ± 0.088 | -1.49 ± 0.088 |
| GCGUAGCAAUAUUACGGCCG | -1.01 ± 0.16 | 0.509 ± 0.34 |
| UCUAAGCAAUAUUACGGUGG | -1.18 ± 0.082 | -0.0857 ± 0.13 |
| GUUCAGCAAUAUUACGGUAU | -0.357 ± 0.062 | 0.309 ± 0.073 |
| CUUUAGCAAUAUUACGUGAU | -2.8 ± 0.14 | -1.05 ± 0.15 |
| CGCCAGCAAUAUUACGGUUU | -0.936 ± 0.056 | -0.589 ± 0.059 |
| UUUGAGCAAUAUUACGCAAG | -3.09 ± 0.34 | -1.51 ± 0.23 |
| UGUGAGCAAUAUUACGAGAG | -3.57 ± 0.23 | -2.44 ± 0.22 |
| GAGCAGCAAUAUUACGAGUC | -1.91 ± 0.12 | -1.92 ± 0.17 |
| CCAGAGCAAUAUUACGUACA |  | -2.77 ± 0.29 |
